From patent US20030044858A1

Tests used:
[1] = target: T1, FcεRII (CD23) on IM9 cells (human) (UniProt P06734); experiment: FACS, 1.65 ug/ml, IM9 cells
T1 sequence (looked up): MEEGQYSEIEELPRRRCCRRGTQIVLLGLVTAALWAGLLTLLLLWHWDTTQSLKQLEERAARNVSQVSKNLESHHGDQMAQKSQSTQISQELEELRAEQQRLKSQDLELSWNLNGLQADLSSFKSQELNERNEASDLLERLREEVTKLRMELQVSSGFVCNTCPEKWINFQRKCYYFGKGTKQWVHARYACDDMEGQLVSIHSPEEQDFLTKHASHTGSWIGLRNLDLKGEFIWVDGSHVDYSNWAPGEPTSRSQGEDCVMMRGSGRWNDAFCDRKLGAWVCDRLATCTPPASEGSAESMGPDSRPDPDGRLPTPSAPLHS

[2] = target: FcεRI alpha chain on CHO 3D10 cells (UniProt P12319); experiment: FACS, 1.65 ug/ml, CHO 3D10 cells
[3] = target: FcεRI alpha chain on CHO 3D10 cells (UniProt P12319); experiment: FACS, 0.5 ug/ml, CHO 3D10 cells
[4] = target: FcεRI alpha chain on CHO 3D10 cells (UniProt P12319); experiment: FACS, 5 ug/ml, CHO 3D10 cells
[5] = target: FcεRI alpha chain on CHO 3D10 cells (UniProt P12319); experiment: FACS, 10 ug/ml, CHO 3D10 cells
[6] = target: T1, FcεRII (CD23) on IM9 cells (human); experiment: FACS, 5 ug/ml, IM9 cells
[7] = target: T1, FcεRII (CD23) on IM9 cells (human); experiment: FACS, 10 ug/ml, IM9 cells
[8] = target: FcεRI alpha chain on CHO 3D10 cells (UniProt P12319); experiment: FACS, 0.1 ug/ml, CHO 3D10 cells
[9] = target: T1, FcεRII (CD23) on IM9 cells (human); experiment: FACS, 0.1 ug/ml, IM9 cells
[10] = target: T1, FcεRII (CD23) on IM9 cells (human); experiment: FACS, 0.5 ug/ml, IM9 cells

Chain of FcεRI alpha chain on CHO 3D10 cells (P12319 26-257 limits assumed): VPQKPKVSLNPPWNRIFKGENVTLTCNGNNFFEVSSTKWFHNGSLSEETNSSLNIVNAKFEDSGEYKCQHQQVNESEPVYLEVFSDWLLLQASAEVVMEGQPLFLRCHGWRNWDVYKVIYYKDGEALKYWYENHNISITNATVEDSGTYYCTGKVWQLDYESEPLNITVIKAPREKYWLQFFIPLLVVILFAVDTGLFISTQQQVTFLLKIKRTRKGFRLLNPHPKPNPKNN
Chain of human IgE (U266 IgE) (P01854 whole entry): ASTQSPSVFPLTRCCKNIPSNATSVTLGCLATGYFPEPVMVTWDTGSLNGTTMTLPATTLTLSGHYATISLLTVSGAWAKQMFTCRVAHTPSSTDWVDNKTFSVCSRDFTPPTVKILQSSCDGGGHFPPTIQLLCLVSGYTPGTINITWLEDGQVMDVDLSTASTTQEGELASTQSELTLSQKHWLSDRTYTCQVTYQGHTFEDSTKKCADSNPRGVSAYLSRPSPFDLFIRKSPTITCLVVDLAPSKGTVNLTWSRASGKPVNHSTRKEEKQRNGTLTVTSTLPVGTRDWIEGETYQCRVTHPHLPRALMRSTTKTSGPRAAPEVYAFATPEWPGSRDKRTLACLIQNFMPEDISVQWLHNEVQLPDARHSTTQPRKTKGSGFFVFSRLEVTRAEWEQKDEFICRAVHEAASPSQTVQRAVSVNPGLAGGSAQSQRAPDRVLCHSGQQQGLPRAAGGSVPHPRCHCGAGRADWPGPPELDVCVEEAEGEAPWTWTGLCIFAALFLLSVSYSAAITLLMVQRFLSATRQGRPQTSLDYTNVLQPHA
Chain of human IgE mutant 11 (Q455A, R457A, T459A) (P01854 other isoform, or with tags, fused parts or gaps, stated change not applied): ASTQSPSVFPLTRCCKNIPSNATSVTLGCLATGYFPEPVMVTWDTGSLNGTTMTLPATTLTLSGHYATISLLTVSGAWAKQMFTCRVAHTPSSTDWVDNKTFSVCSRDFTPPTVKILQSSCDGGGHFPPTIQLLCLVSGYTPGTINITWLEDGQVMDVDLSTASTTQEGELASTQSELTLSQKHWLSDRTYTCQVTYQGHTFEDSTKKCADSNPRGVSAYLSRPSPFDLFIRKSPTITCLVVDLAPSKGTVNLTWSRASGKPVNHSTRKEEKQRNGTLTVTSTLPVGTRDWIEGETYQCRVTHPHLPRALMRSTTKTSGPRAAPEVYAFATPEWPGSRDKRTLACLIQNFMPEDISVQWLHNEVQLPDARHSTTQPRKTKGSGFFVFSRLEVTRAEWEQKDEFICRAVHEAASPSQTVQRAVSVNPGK
Chain of human IgE mutant 10 (T438A, T440A) (P01854 other isoform, or with tags, fused parts or gaps, stated change not applied): as above
Chain of human IgE mutant 6 (β-strand D exchanged) (P01854 other isoform, or with tags, fused parts or gaps, change not shown): as the sequence (P01854 other isoform, or with tags, fused parts or gaps, stated change not applied) above
Chain of human IgE mutant 8 (T387A, T389A) (P01854 other isoform, or with tags, fused parts or gaps, stated change not applied): as above
Chain of human IgE mutant 13 (Fcε2: 329-331 and 334-336 to Ala) (P01854 other isoform, or with tags, fused parts or gaps, change not shown): as the sequence (P01854 other isoform, or with tags, fused parts or gaps, stated change not applied) above
Chain of human IgE mutant 4 (loop EF exchanged) (P01854 other isoform, or with tags, fused parts or gaps, change not shown): as the sequence (P01854 other isoform, or with tags, fused parts or gaps, stated change not applied) above
Chain of human IgE mutant 5 (loop FG exchanged) (P01854 other isoform, or with tags, fused parts or gaps, change not shown): as the sequence (P01854 other isoform, or with tags, fused parts or gaps, stated change not applied) above
Chain of human IgE mutant 12 (S471A, T473A) (P01854 other isoform, or with tags, fused parts or gaps, stated change not applied): as above
Chain of human IgE mutant 7 (383-385 RKS to AAA) (P01854 other isoform, or with tags, fused parts or gaps, change not shown): as the sequence (P01854 other isoform, or with tags, fused parts or gaps, stated change not applied) above
Chain of human IgE mutant 1 (loop AB exchanged for human IgG1 loop) (P01854 other isoform, or with tags, fused parts or gaps, change not shown): as the sequence (P01854 other isoform, or with tags, fused parts or gaps, stated change not applied) above
Chain of human IgE mutant 3 (loop CD exchanged) (P01854 other isoform, or with tags, fused parts or gaps, change not shown): as the sequence (P01854 other isoform, or with tags, fused parts or gaps, stated change not applied) above
Chain of human IgE mutant 9 (N403A, T405A) (P01854 other isoform, or with tags, fused parts or gaps, stated change not applied): as above
Chain of human IgE mutant 2 (loop BC exchanged) (P01854 other isoform, or with tags, fused parts or gaps, change not shown): as the sequence (P01854 other isoform, or with tags, fused parts or gaps, stated change not applied) above

Row | % IM9 (+) [1] [%] | % CHO 3D10 (+) [2] [%] | Substance | further results
1 | 94.3 | 84.2 | human IgE mutant 9 (N403A, T405A) (from UniProt P01854 1-428) (antibody) | –
2 | 90.3 | 84.7 | human IgE mutant 12 (S471A, T473A) (from UniProt P01854 1-428) (antibody) | –
3 | 73.9 | 60.5 | human IgE mutant 5 (loop FG exchanged) (from UniProt P01854 1-428) (antibody) | –
4 | 1.2 | 32.3 | human IgE mutant 3 (loop CD exchanged) (from UniProt P01854 1-428) (antibody) | –
5 | 61.5 | 70.8 | human IgE mutant 11 (Q455A, R457A, T459A) (from UniProt P01854 1-428) (antibody) | –
6 | 9.2 | 4.9 | human IgE mutant 4 (loop EF exchanged) (from UniProt P01854 1-428) (antibody) | –
7 | 48.9 | 34.3 | human IgE mutant 2 (loop BC exchanged) (from UniProt P01854 1-428) (antibody) | –

Second part, the substance before the results:

Row | Substance | % IM9 (+) [1] [%] | % CHO 3D10 (+) [2] [%] | further results
8 | human IgE mutant 7 (383-385 RKS to AAA) (from UniProt P01854 1-428) (antibody) | 4.6 | 76.4 | –
9 | human IgE mutant 6 (β-strand D exchanged) (from UniProt P01854 1-428) (antibody) | 71.6 | 1.4 | –
10 | human IgE mutant 8 (T387A, T389A) (from UniProt P01854 1-428) (antibody) | 16.3 | 70.3 | –
11 | human IgE mutant 1 (loop AB exchanged for human IgG1 loop) (from UniProt P01854 1-428) (antibody) | 4.3 | 1.7 | –
12 | human IgE mutant 13 (Fcε2: 329-331 and 334-336 to Ala) (from UniProt P01854 1-428) (antibody) | 96.1 | 85.7 | –
13 | human IgE mutant 10 (T438A, T440A) (from UniProt P01854 1-428) (antibody) | 84.8 | 67.5 | –
14 | human IgE (U266 IgE) (from UniProt P01854 1-546) (antibody) | – | – | % CHO 3D10 (+) [3]: 59.6%; % CHO 3D10 (+) [4]: 89.9%; % CHO 3D10 (+) [5]: 90.3%; % IM9 (+) [6]: 82.6%; % IM9 (+) [7]: 92.5%; % CHO 3D10 (+) [8]: 15.8%; % IM9 (+) [9]: 1.7%; % IM9 (+) [10]: 4.6%
